Assays:
human CX3CR1 [1] = biological target: T1, human CX3CR1 (human, UniProt P49238 1-355); assay: flow cytometry, AF-647 labelled soluble CX3CL1 on transiently transfected HEK293T cells, human CX3CR1 WT
T1 construct: Overexpressed on CHO K1, Ba/F3 or HEK293T cells; also called huCX3CR1; hCX3CR1
T1 sequence: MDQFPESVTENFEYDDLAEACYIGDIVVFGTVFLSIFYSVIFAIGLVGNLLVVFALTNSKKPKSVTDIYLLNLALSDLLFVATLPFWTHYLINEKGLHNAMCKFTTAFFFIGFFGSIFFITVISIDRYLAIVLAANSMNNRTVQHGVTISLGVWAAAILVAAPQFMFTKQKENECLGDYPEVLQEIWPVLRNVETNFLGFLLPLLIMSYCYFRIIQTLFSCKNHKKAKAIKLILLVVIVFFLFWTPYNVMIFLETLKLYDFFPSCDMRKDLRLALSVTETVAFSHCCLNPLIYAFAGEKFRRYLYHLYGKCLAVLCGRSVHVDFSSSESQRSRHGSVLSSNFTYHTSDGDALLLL

human CX3CR1 [2] = biological target: T1, human CX3CR1; assay: cell-based or functional assay
mouse CX3CR1 = biological target: T2, mouse CX3CR1 (mouse, UniProt Q9Z0D9 1-354); assay: cell-based or functional assay
T2 sequence (looked up): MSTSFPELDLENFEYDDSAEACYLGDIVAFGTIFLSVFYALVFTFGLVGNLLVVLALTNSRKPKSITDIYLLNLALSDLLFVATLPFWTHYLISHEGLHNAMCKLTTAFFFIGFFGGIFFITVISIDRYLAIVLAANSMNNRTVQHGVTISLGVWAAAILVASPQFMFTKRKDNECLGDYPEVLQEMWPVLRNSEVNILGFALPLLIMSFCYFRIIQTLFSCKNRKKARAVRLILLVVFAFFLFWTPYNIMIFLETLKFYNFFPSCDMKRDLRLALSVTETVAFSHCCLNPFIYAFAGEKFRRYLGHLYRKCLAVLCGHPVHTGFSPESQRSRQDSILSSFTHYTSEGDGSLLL

human CX3CR1 V249I = biological target: T3, human CX3CR1 V249I (human, UniProt P49238 1-355); assay: flow cytometry, AF-647 labelled soluble CX3CL1 on transiently transfected HEK293T cells, human CX3CR1 V249I
T3 construct: Transiently transfected in HEK293T cells (pcDNA3.1); also called huCX3CR1 variant V249I (Rs3732379); printed V2491 in the text
T3 sequence: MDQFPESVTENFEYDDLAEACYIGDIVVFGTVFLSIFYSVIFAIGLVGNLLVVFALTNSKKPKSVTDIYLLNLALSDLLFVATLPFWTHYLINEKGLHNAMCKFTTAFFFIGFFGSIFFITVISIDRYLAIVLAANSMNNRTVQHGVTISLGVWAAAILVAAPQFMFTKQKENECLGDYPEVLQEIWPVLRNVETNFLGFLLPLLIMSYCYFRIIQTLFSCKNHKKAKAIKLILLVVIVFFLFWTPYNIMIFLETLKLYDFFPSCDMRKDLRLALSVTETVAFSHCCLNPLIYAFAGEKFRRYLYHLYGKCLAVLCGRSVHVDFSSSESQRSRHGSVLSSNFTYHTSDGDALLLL

human CX3CR1 T280M = biological target: T4, human CX3CR1 T280M (human, UniProt P49238 1-355); assay: flow cytometry, AF-647 labelled soluble CX3CL1 on transiently transfected HEK293T cells, human CX3CR1 T280M
T4 construct: Transiently transfected in HEK293T cells (pcDNA3.1); also called huCX3CR1 variant T280M (Rs3732378)
T4 sequence: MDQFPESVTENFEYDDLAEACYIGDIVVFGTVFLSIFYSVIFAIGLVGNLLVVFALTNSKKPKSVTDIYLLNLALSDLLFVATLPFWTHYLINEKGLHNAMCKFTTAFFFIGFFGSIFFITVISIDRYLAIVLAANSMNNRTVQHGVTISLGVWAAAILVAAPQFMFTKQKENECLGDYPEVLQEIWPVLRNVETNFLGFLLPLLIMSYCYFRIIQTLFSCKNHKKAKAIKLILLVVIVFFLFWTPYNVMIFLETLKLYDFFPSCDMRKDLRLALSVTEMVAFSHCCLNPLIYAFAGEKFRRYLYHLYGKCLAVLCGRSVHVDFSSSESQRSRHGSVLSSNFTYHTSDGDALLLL

human CX3CR1 V249I/T280M = biological target: T5, human CX3CR1 V249I/T280M (human, UniProt P49238 1-355); assay: flow cytometry, AF-647 labelled soluble CX3CL1 on transiently transfected HEK293T cells, human CX3CR1 V249I/T280M
T5 construct: Transiently transfected in HEK293T cells (pcDNA3.1); also called huCX3CR1 variant V249I and T280M
T5 chain: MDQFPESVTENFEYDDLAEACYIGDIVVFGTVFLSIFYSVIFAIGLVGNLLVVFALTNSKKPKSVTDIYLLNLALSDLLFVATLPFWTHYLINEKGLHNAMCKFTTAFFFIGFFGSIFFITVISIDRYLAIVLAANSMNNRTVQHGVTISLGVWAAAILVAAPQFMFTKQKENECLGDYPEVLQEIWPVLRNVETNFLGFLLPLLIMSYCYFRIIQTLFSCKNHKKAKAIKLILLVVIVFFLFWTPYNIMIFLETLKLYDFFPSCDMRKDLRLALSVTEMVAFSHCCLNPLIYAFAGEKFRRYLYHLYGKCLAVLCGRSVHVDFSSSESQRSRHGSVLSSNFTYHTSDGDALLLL

B1: human CX3CL1/Fraktalkine (ligand, UniProt P78423 25-339, looked up)
chain: QHHGVTKCNITCSKMTSKIPVALLIHYQQNQASCGKRAIILETRQHRLFCADPKEQWVKDAMQHLDRQAAALTRNGGTFEKQIGEVKPRTTPAAGGMDESVVLEPEATGESSSLEPTPSSQEAQRALGTSPELPTGVTGSSGTRLPPTPKAQDGGPVGTELFRVPPVSTAATWQSSAPHQPGPSLWAEAKTSEAPSTQDPSTQASTASSPAPEENAPSEGQRVWGQGQSPRPENSLEREEMGPVPAHTDAFQDWGPGSMAHVSVVPVSSEGTPSREPVASGSWTPKAEEPIHATMDPQRLGVLITPVPDAQAATR
modifications: labelled with AF647 (in house) in the binding and competition assays; unlabelled in the chemotaxis and pERK assays
notes: Bought protein; also called huCX3CL1; huCX3CL1-AF647
For B1, the EC50 (human CX3CR1 [1]) was 3.3 nM, the “EC50, ERK phosphorylation in CHO K1 huCX3CR1 cells” value (human CX3CR1 [2]) was 2 nM and the “EC50, ERK phosphorylation in CHO K1 mCX3CR1 cells” value (mouse CX3CR1) was 2.5 nM. It also gave an EC50 (human CX3CR1 V249I) of 2.1 nM, an EC50 (human CX3CR1 T280M) of 19 nM and an EC50 (human CX3CR1 V249I/T280M) of 4.2 nM.

From patent US20240117038A1 (Ablynx, published 2024)
